In data set [1] the target is Bifidobacterium kashiwanohense TauF (sulfoacetaldehyde reductase) (Bifidobacterium kashiwanohense). Kind of data set: SEC; Superdex200 gel filtration, 5 mg/ml BkTauF, 4 ml injected, buffer C (20 mM Tris pH 7.5, 200 mM KCl, 1 mM DTT), 2 ml/min; molecular weight from the elution volume against markers. On the technique in general: In gel filtration, larger molecules generally elute earlier.

The target of another data set is T1, BkTauF (Bifidobacterium catenulatum, UniProt A0A0A7I0A5).
T1 construct: gene AH68_00250; codon-optimized gene; His6-MBP-TEV-GGG fusion in E. coli BL21(DE3), tag cut by TEV protease, GGG linker before N-terminus; 375 residues seen, 41 kDa monomer, dimer; Zn2+ enzyme
Put plainly: X-ray crystal structure, […] Å. The settings on record: binary complex; nucleotide site in cleft between N- and C-terminal domains. Format: binding.

Substrate in data set [2]: NC(=O)c1ccc[n+]([C@@H]2O[C@H](COP(=O)(O)OP(=O)(O)OC[C@H]3O[C@@H](n4cnc5c(N)ncnc54)[C@H](OP(=O)(O)O)[C@@H]3O)[C@@H](O)[C@H]2O)c1
Kind of data set: spectrophotometric NADPH formation, A340. Format: biochemical, Bifidobacterium catenulatum. Particulars: isethionate oxidation, 100 mM isethionate, 50 mM CAPSO pH 10.0, room temperature. The source says: spectrophotometric NADPH formation, A340 on BkTauF

Substrate in data set [3]: NC(=O)C1=CN([C@@H]2O[C@H](COP(=O)(O)OP(=O)(O)OC[C@H]3O[C@@H](n4cnc5c(N)ncnc54)[C@H](OP(=O)(O)O)[C@@H]3O)[C@@H](O)[C@H]2O)C=CC1
Kind of data set: spectrophotometric NADPH assay, A340. The class given is biochemical, Bifidobacterium catenulatum. The settings on record: sulfoacetaldehyde reduction, 5 mM sulfoacetaldehyde, 50 mM Tris/HCl pH 7.5, room temperature. The text has this:
spectrophotometric NADPH assay, A340 on BkTauF

Substrate in data set [4]: NC(=O)C1=CN([C@@H]2O[C@H](COP(=O)(O)OP(=O)(O)OC[C@H]3O[C@@H](n4cnc5c(N)ncnc54)[C@H](O)[C@@H]3O)[C@@H](O)[C@H]2O)C=CC1
Put plainly: spectrophotometric NADH assay, A340. Particulars: sulfoacetaldehyde reduction; 5 mM sulfoacetaldehyde, 50 mM Tris/HCl pH 7.5, room temperature; pH 7.5. The class given is biochemical, Bifidobacterium catenulatum. The source says:
(§1) spectrophotometric NADH assay, A340 on BkTauF

Substrate in data set [5]: O=CCS(=O)(=O)O
Put plainly: spectrophotometric NADH assay, A340. The class given is biochemical, Bifidobacterium catenulatum. Particulars: sulfoacetaldehyde introduced as bisulfite adduct; 0.5 mM NADH, 50 mM Tris/HCl pH 7.5, room temperature; pH 7.5.
Excerpt: as §1

Substrate in data set [6]: O=S(=O)(O)CCO
Kind of data set: spectrophotometric NADH assay, A340. Particulars: isethionate oxidation; 1 mM NAD+, 50 mM CAPSO pH 10.0, room temperature; pH 10.0. The class given is biochemical, Bifidobacterium catenulatum.
Excerpt: as §1

Substrate in data set [7]: NC(=O)c1ccc[n+]([C@@H]2O[C@H](COP(=O)(O)OP(=O)(O)OC[C@H]3O[C@@H](n4cnc5c(N)ncnc54)[C@H](O)[C@@H]3O)[C@@H](O)[C@H]2O)c1
Put plainly: spectrophotometric NADH formation, A340. Format: biochemical, Bifidobacterium catenulatum. The settings on record: isethionate oxidation, 100 mM isethionate, 50 mM CAPSO pH 10.0, room temperature. The source says:
spectrophotometric NADH formation, A340 on BkTauF

For orientation: stoichiometry N means the number of molecules, sites or subunits per partner or assembly. As for “Bifidobacterium kashiwanohense TauF (sulfoacetaldehyde reductase) (enzyme)”, the stoichiometry N in data set [1] stood at 2.

On to `NC(=O)c1ccc[n+]([C@@H]2O[C@H](COP(=O)(O)OP(=O)(O)OC[C@H]3O[C@@H](n4cnc5c(N)ncnc54)[C@H](O)[C@@H]3O)[C@@H](O)[C@H]2O)c1` [NAD^+], for which the “X-ray crystal structure, 3.0 Å” value on BkTauF is listed as “The electron density is well defined for NAD^+”.

B1: BkTauF (Bifidobacterium catenulatum subsp. puerorum PV20-2) (protein)
chain: MLWDYAQPVTIRFGKGRAMEIKDIAEAMGLHDGIMVTPKFFVDSGEAQRLIDASDGAVSTVFTDFSPNPDVTEVDACAEIIRKNHCEFVVAMGGGSAMDVSKAAASICLTDDSIADYHGTGKAMPQKHLPIIALPTTAGTGSEVTCVSVLTNRKLGKKAPIVSDGFFPSVAIVDPELTYSVPPKITASTGMDVLSQAIEGFWSKGHQPICDSCAAHAAKLVFKYLPIAVAEPHNEEAREKMCEASVIAGLAFTLPKTTSSHACSFPLTNIHGIPHGEACGLTLDYFARINKDAQHGRVQEFARGIGFKDVDAMADAIHDLKVRIGMRTGLKDLNLTEEQIADLVRISRHPNLYNNPVEITDDMLDTMYHYLASTD
notes: codon-optimized gene; His6-MBP-TEV-GGG fusion in E. coli BL21(DE3), tag cut by TEV protease, GGG linker before N-terminus; 375 residues seen, 41 kDa monomer, dimer; Zn2+ enzyme
For orientation: Km means the concentration of substrate that gives half-maximal velocity. The term kcat denotes the number of substrate molecules converted per active site and unit of time at saturation. In general, kcat/Km refers to the turnover number divided by the Michaelis constant. For the molecule B1, the Michaelis-Menten constant (Km) in data set [2] turned out to be 770 ± 80 µM; in data set [3], 730 ± 80 µM; in data set [4] it was 60 ± 10 µM; in data set [5], 500 ± 40 µM; in data set [6] it was 4440 ± 590 µM; in data set [7], 80 ± 0 µM. Also, the kcat was found to be 0.8 ± 0.02 s⁻¹ in data set [2]; 19 ± 1.13 s⁻¹ in data set [3]; 18.7 ± 0.52 s⁻¹ in data set [4]; 22.8 ± 0.68 s⁻¹ in data set [5]; 0.97 ± 0.03 s⁻¹ in data set [6]; 1.3 ± 0.02 s⁻¹ in data set [7]. Besides, the specificity constant (kcat/Km) in data set [2] worked out at 1030 M⁻¹ s⁻¹; in data set [3], 26200 M⁻¹ s⁻¹; in data set [4], 301000 M⁻¹ s⁻¹; in data set [5], 46100 M⁻¹ s⁻¹; in data set [6], 218 M⁻¹ s⁻¹; in data set [7] it was 15800 M⁻¹ s⁻¹.

These data come from publication PMC6616044, “Identification and characterization of a new sulfoacetaldehyde reductase from the human gut bacterium Bifidobacterium kashiwanohense” (Bioscience Reports, 2019).
